Experimental data published in patent US20250179183A1.
Where two headings read alike, the source gives them in different places.

How the values were obtained:
[1] = target: cynomolgus monkey CD32a (cynomolgus monkey)
[2] = target: cynomolgus monkey CD32a (cynomolgus monkey); remark: listed apart in the source
[3] = target: cynomolgus monkey CD32b (cynomolgus monkey)

Kd [1]: 5.94 µM
Kd [2]: 3.13 µM
Kd [3]: 1.46 µM
Substance: Rituximab (antibody)
